Consider 1 molecule from patent US20190010249A1 (Ablynx, published 2019).

As a reminder, the Kd is a measure of binding affinity in units of concentration.

Test [1] has as its target T1, human multimeric vWF (purified vWF HaemateP) (human, UniProt P04275 764-2813).
T1 construct: vWF purified from HaemateP by size-exclusion chromatography; also called multimeric target vWF; purified HaemateP
Briefly: Gyrolab solution affinity, 5 pM caplacizumab pre-incubated with vWF dilution series; lyophilized formulation. The source says:
(§1) This assay measures the inhibition of ristocetin-induced binding of von Willebrand Factor (vWF) to bound platelet by caplacizumab. [0395] c) The RICO assay is used as pharmacodynamics marker for the pharmacological activity of caplacizumab. The assay measures the rate and degree to which human lyophilized platelets form aggregates after the addition of the antibiotic ristocetin, which mimics shear-induced activation of vWF. [0396] d) Gyrolab-based assay analyses the kinetic interactions of caplacizumab with its multimeric target vWF and determines the affinity constant of caplacizumab to human multimeric vWF. Briefly, affinity determination on the Gyroloab platform was established as follows: Gyrolab Bioaffy 1000 CDs were used. As capture tool, 3000 nM in-house biotinylated purified vWF (purified HaemateP using size-exclusion chromatography) was applied on the columns which were pre-packed with streptavidin-coated beads. Filter-sterilized D-PBS containing 0.01% Tween-20 was used for dilution of the capture tool. […] Free caplacizumab was detected with 50 nM AlexaFluor647-labeled anti-caplacizumab monoclonal antibody diluted in Rexxip F buffer (commercially available detection buffer). […]

The target of test [2] is T1, human multimeric vWF (purified vWF …). Briefly: Gyrolab solution affinity, 5 pM caplacizumab pre-incubated with vWF dilution series; liquid formulation.
Description: as §1

B1: 12A02H1-3a-12A02H1 (ALX-0081) (VHH)
chain: EVQLVESGGGLVQPGGSLRLSCAASGRTFSYNPMGWFRQAPGKGRELVAAISRTGGSTYYPDSVEGRFTISRDNAKRMVYLQMNSLRAEDTAVYYCAAAGVRAEDGRVRTLPSEYTFWGQGTQVTVSSAAAEVQLVESGGGLVQPGGSLRLSCAASGRTFSYNPMGWFRQAPGKGRELVAAISRTGGSTYYPDSVEGRFTISRDNAKRMVYLQMNSLRAEDTAVYYCAAAGVRAEDGRVRTLPSEYTFWGQGTQVTVSS
notes: Bivalent Nanobody: a single chain of two 12A02H1 domains joined by an AAA linker; It was tested as samples from different formulations and storage conditions; also called caplacizumab; anti-vWF Nanobody caplacizumab
Take B1: the dissociation constant Kd in test [1] came to 4.46 pM; in test [2], 6.84 pM.
